According to PMC7016005 (2020):

B1: mouse Twist1, wildtype [mouse] / mouse E2A [mouse] (parent complex)
chain 1: MMQDVSSSPVSPADDSLSNSEEEPDRQQPASGKRGARKRRSSRRSAGGSAGPGGATGGGIGGGDEPGSPAQGKRGKKSAGGGGGGGAGGGGGGGGGSSSGGGSPQSYEELQTQRVMANVRERQRTQSLNEAFAALRKIIPTLPSDKLSKIQTLKLAARYIDFLYQVLQSDELDSKMASCSYVAHERLSYAFSVWRMEGAWSMSASH
chain 2: MMNQSQRMAPVGSDKELSDLLDFSMMFPLPVANGKSRPASLGGTQFAGSGLEDRPSSGSWGSSDQNSSSFDPSRTYSEGAHFSDSHSSLPPSTFLGAGLGGKGSERNAYATFGRDTSVGTLSQAGFLPGELSLSSPGPLSPSGIKSSSQYYPSFPSNPRRRAADGGLDTQPKKVRKVPPGLPSSVYPPSSGDSYSRDAAAYPSAKTPSSAYPSPFYVADGSLHPSAELWSTPSQVGFGPMLGDGSSPLPLAPGSSSVGSGTFGGLQQQDRMGYQLHGSEVNGSLPAVSSFSAAPGTYSGTSGHTPPVSGAAAESLLGTRGTTASSSGDALGKALASIYSPDHSSNNFSPSPSTPVGSPQGLPGTSQWPRAGAPSALSPNYDAGLHGLSKMEDRLDEAIHVLRSHAVGTASDLHGLLPGHGALTTSFTGPMSLGGRHAGLVGGSHPEEGLTSGASLLHNHASLPSQPSSLPDLSQRPPDSYSGLGRAGTTAGASEIKREEKEDEEIASVADAEEDKKDLKVPRTRTSPDEDEDDLLPPEQKAEREKERRVANNARERLRVRDINEAFKELGRMCQLHLSSEKPQTKLLILHQAVAVILSLEQQVRERNLNPKAACLKRREEEKVSGVVGDPQLALSAAHPGLGEAHNPAGHL

Variants of: B1
Test: co-immunoprecipitation (Flag-IP), blot quantified by ImageJ; Flag-E2A bait, Twist1-Myc prey; n = 3; parent: 1; read off a plot
chain 1 A190T was tested, and the response was ~0.52 relative expression (/GAPDH). chain 1 F191S was tested, and the response was ~1.6 relative expression (/GAPDH). For chain 1 S192P, the response was ~0.05 relative expression (/GAPDH).
